Key:
thrombin (alpha) (human) = thrombin (alpha) (human) (UniProt P00734+P00734); experiment: filter
[1] = target: basic fibroblast growth factor (bFGF) (UniProt P09038); experiment: filter
[2] = bulk pool, text also says after 12 rounds, apparently unselected

Chain of basic fibroblast growth factor (bFGF) (P09038 135-288): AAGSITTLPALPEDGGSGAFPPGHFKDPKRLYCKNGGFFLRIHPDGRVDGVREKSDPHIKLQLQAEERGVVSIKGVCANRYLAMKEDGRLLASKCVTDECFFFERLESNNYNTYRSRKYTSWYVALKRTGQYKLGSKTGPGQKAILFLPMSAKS

AGATGCCTGTCGAGCATGCTNGTAGCTAAACTGCTTTGTCGACGGG [30N DNA pool after SELEX]
Kd (thrombin (alpha) (human); pool after 12 rounds): 8 nM

AGATGCCTGTCGAGCATGCTNGTAGCTAAACTGCTTTGTCGACGGG [60N DNA pool after SELEX]
Kd (thrombin (alpha) (human); pool after 12 rounds): 8 nM

AGATGCCTGTCGAGCATGCTNGTAGCTAAACTGCTTTGTCGACGGG [bulk 30N DNA]
Kd (thrombin (alpha) (human); [2]): 8000 nM

AGATGCCTGTCGAGCATGCTNGTAGCTAAACTGCTTTGTCGACGGG [bulk 60N DNA]
Kd (thrombin (alpha) (human); [2]): 5000 nM

GGGAGACAAGAAUAACGCUCAANNNNNNNNNNNNNNNNNNNNNNNNNNNNNNUUCGACAGGAGGCUCACAACAGGC [2'-NH2 starting random RNA A]
Kd ([1]; 2'-NH2 pyrimidines, unselected pool, +/-11): 65 nM

GGGAGAUGCCUGUCGAGCAUGCUGNNNNNNNNNNNNNNNNNNNNNNNNNNNNNNGUAGCUAAACAGCUUUGUCGACGGG [random RNA B (unmodified)]
Kd ([1]; unselected pool, PBS, 37 C): 560 nM

GGGAGCUCAGAAUAAACGCUCAANNNNNNNNNNNNNNNNNNNNNNNNNNNNNNUUCGACAUGAGGCCCGGAUCCGGC [random RNA A (unmodified)]
Kd ([1]; unselected pool, PBS, 37 C): 300 nM

GGGAGGACGATGCGGGGGGCTATGCGATACAGTCGCGNTANGCTAGGCGCAGACGAGCGGGA [m26]
Kd ([1]; PBS): 1.6 nM

GGGAGGACGATGCGGNCAGACGACGACGGGGA [DNA SELEX pool Experiment 3 round 10]
Kd ([1]; round 10 pool): 2.5 nM

GGGAGGACGATGCGGNCAGACGACGACGGGGA [DNA SELEX pool Experiment 3 round 11]
Kd ([1]; round 11 pool): 4 nM

GGGAGGACGATGCGGNCAGACGACGACGGGGA [DNA random pool 30N7.1PS (round 0)]
Kd ([1]; round 0 pool): 300 nM

GGGAGGACGAUGCGGNNNNNNNNNNNNNNNNNNNNNNNNNNNNNNNNNNNNNNNNNNNNNNNNNNCAGACGACUCGCCCGA [2'-NH2 starting random RNA B]
Kd ([1]; 2'-NH2 pyrimidines, unselected pool, +/-140): 240 nM

Reference: US6177557
